What was measured:
Test in all cases: cryo-EM structure
Rsc9 = target: T1, Rsc9 (yeast, UniProt Q03124 1-581)
T1 sequence: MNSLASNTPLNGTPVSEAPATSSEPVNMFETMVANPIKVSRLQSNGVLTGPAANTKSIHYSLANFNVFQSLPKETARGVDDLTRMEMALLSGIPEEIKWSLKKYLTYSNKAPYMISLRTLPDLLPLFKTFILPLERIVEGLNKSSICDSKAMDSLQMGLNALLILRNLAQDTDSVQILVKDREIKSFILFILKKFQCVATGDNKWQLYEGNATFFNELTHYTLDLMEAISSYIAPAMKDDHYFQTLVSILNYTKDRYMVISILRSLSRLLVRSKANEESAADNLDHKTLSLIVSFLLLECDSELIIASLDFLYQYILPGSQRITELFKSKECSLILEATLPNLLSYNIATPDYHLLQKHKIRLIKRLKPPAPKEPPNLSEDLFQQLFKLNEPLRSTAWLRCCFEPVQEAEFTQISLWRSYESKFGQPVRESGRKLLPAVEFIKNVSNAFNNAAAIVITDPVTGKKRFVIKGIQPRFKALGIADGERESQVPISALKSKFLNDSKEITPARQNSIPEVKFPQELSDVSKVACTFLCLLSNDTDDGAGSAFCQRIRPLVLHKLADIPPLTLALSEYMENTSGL

Rsc8 = target: T2, Rsc8 (yeast, UniProt P43609 1-557)
T2 sequence: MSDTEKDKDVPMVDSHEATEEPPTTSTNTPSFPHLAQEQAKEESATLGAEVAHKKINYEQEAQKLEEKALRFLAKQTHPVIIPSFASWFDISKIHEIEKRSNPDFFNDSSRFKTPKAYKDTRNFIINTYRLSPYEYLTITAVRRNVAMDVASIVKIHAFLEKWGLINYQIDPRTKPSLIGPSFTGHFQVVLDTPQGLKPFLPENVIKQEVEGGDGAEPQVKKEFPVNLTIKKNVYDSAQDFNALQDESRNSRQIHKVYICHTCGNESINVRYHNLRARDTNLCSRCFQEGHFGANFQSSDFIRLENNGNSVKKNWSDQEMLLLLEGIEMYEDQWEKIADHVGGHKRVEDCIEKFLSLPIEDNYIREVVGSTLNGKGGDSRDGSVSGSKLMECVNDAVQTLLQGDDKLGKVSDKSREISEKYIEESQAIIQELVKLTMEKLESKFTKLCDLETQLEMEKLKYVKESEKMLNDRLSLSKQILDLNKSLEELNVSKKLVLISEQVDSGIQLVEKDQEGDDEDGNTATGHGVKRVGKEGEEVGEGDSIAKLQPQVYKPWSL

Rsc58 = target: T3, Rsc58 (yeast, UniProt Q07979 1-502)
T3 sequence: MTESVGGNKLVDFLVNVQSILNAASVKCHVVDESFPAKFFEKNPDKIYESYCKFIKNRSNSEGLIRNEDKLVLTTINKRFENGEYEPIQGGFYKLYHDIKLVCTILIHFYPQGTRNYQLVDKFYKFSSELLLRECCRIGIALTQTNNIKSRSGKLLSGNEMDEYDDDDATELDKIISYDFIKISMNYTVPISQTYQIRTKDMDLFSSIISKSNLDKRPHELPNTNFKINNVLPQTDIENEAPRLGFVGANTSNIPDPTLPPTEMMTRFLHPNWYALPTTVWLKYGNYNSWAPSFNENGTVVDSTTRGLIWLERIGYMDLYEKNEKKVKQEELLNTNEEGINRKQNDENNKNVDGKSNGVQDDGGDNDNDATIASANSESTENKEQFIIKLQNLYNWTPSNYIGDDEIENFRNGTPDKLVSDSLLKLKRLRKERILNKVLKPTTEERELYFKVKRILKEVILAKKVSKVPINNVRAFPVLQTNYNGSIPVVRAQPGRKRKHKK

Measured: binding result

B1: Rsc6 (natural protein, yeast)
chain: MVTQTNPVPVTYPTDAYIPTYLPDDKVSNLADLKKLIEMDSRLDLYLTRRRLDTSINLPTNTKTKDHPPNKEMLRIYVYNTTESSPRSDSGTPADSGKTTWTLRIEGKLLHESANGKHPFSEFLEGVAVDFKRLKPLGMGKKRKRDSSLSLPLNLQQPEYNDQDSTMGDNDNGEDEDSAEAESREEIVDALEWNYDENNVVEFDGIDIKRQGKDNLRCSITIQLRGVDGGKVQYSPNLATLIGMQTGSVNDAVYSIYKYILINNLFVTEQTEAQDGSNDAEDSSNENNNKNGAGDDDGVEGSTPKDKPELGEVKLDSLLQKVLDTNAAHLPLMNVVQTVNKLVSPLPPIILDYTIDLSKDTTYGATTLDVDVSHILHQPQPQPNLQKEEETDAEDTAKLREITKLALQLNSSAQKYQFFHELSLHPRETLTHYLWSSKQNELVLQGDQYFNEDAARTSDIYSNNNNDRSLMGNISLLYSQGRL
binds: all assays above

Reference: PMC8442553 (Science (New York, N.Y.), 2019)
